Measured values taken from patent US20200024357A1 (published 2020).

Target: T1, human CD39 (vascular CD39, NTPDase1, ENTPD1) expressed at the cell surface (human, UniProt P49961 1-510)
T1 construct: also called huCD39; CHO-huCD39
T1 sequence: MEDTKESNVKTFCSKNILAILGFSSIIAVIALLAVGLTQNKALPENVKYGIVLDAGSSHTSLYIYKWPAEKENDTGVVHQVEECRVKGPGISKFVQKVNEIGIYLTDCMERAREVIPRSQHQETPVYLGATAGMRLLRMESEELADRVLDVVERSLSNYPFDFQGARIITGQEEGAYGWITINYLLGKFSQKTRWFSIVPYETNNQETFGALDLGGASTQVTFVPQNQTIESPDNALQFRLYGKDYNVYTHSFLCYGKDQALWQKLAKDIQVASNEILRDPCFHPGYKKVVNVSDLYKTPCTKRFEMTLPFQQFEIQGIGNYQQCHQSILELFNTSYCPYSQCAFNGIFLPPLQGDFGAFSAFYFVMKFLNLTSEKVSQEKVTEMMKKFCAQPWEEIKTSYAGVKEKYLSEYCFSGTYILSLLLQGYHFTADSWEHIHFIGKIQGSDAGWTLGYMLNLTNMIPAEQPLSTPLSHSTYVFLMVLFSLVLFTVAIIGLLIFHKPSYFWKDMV
Assay: flow cytometry on CHO cells expressing human CD39
Protocol: Cells were incubated with various concentration of unlabeled anti-CD39 antibody from 30 μg/ml to 5×10-⁴ μg/ml, for 30 minutes at 4° C. After washes, cells were incubated with Goat anti-mouse H+L labeled secondary antibody for 30 min at 4° C.
Antibodies mAb1-21 were assessed for binding to CD39 by flow cytometry as described in Example 7, using CHO cells expressing human CD39 and CHO cells expressing cynomolgus (Macaca fascicularis) CD39.

B1: mAb20 H4L1 (antibody, human IgG1, kappa, V domains shown)
VH: QVQLVQSGAEVKKPGASVKVSCKASGYTFTDYNMHWVRQAPGQRLEWIGYIVPLNGGSTFNQKFKGRATITVDTSARTAYMELSSLRSEDTAVYYCARGGTRFAYWGQGTLVTVSS
VL: DIVMTQSPDSLAVSLGERATINCRASESVDNFGVSFMYWFQQKPGQPPKLLIYGASNQGSGVPDRFSGSGSGTDFTLTISSLQAEDVAVYYCQQTKEVPYTFGGGTKVEIKR
notes: The full heavy chain carries L234A/L235E/G237A/A330S/P331S
B1: binds.
